Measured values as given in the RNAGym collection of RNA variant scans (doi:10.1093/molbev/msab373).

B1: Azoarcus group I ribozyme (parent)
chain: GUGCCUUGCGCCGGGAAACCACGCAAGGGAUGGUGUCAAAUUCGGCGAAACCUAAGCGCCCGCCCGGGCGUAUGGCAACGCCGAGCCAAGCUUCGGCGCCUGCGCCGAUGAAGGUGUAGAGACUAGACGGCACCCACCUAAGGCAAACGCUAUGGUGAAGGCAUAGUCCAGGGAGUGGCGAAAGUCACACAAACCGG

Variants of: B1
Assay: reverse-splicing fitness (ratio to wild type); higher = more active; in vitro selection; Mg2+ level not given
Outline: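 An in vitro group I ribozyme library with randomized positions was T7-transcribed and gel-purified. In triplicate, 10 pmol RNA in EPPS pH 7.5 was reacted with 50 pmoles of a 30-nt RNA substrate for 1 h at 37 °C across several added MgCl2 levels (1–48 mM), then stopped with EDTA. Products were reverse transcribed from a substrate-complementary primer, PCR-amplified and sequenced (HiSeq 4000). Fitness is a variant's read proportion after selection over that before, normalised to wild type.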

Row | Variant | reverse-splicing fitness
1 | A111U A145C C150A C169U | 0.0131
2 | A111U A145C C150A C169A | 0.00817
3 | A111U A145C C150A C169G | 0.00935
4 | A111U A120U A145G C169G U176C | 0.00918
5 | A111U A120U A145G C169G U176G | 0.00167
6 | A111U A120U A145G C169G U176A | 0.00549
7 | A111U A120U C150A C169U U176C | 0.0045
8 | A111U A120U C150A C169U U176G | 0.00212
9 | A111U A120U C150A C169U U176A | 0.00638
10 | A111U A120U A145U C150U C169G U176G | 0.00227
11 | A111U A120U A145U C150U C169G U176C | 0.00596
12 | A111U A120U A145U C150U C169G U176A | 0.00542
13 | A111U A120U A145U C150U C169U U176A | 0.00718
14 | A111U A120U A145U C150U C169U U176G | 0.00253
15 | A111U A120U A145U C150U C169U U176C | 0.00988
16 | A111U A120U A145C C150G C169U U176G | 0.00228
17 | A111U A120U A145C C150G C169U U176A | 0.00301
18 | A111U A120U A145C C150G C169U U176C | 0.0029
19 | A111U A120U A145C C150U C169G U176G | 0.00222
20 | A111U A120U A145C C150U C169G U176A | 0.0032
21 | A111U A120U A145C C150U C169G U176C | 0.00276

Row | Variant | reverse-splicing fitness
22 | A111U A120U A145C C169U | 0.0629
23 | A111U A120U A145C C169G | 0.0459
24 | A111U A120U A145C C169A | 0.00435
25 | A111U A145C C150U | 0.661
26 | A111U A145C C150A | 0.23
27 | A111U A145C C150G | 0.426
28 | A111U A120U A145G C150U C169A | 0.00694
29 | A111U A120U A145G C150U C169G | 0.0377
30 | A111U A120U A145G C150U C169U | 0.0617
31 | A111U A120U A145G C150U C169U U176G | 0.00291
32 | A111U A120U A145G C150U C169U U176C | 0.0144
33 | A111U A120U A145G C150U C169U U176A | 0.0115
34 | A111U A120U A145G C150G C169U | 0.0125
35 | A111U A120U A145G C150G C169G | 0.01
36 | A111U A120U A145G C150G C169A | 0.00796
37 | A111U A120U A145C C150A C169U U176A | 0.00285
38 | A111U A120U A145C C150A C169U U176G | 0.00241
39 | A111U A120U A145C C150A C169U U176C | 0.00285
40 | A111U A120U A145U C169G U176G | 0.00201
41 | A111U A120U A145U C169G U176A | 0.00482
42 | A111U A120U A145U C169G U176C | 0.00666

Row | Variant | reverse-splicing fitness
43 | A111U A120U A145G C150G C169A U176C | 0.00774
44 | A111U A120U A145G C150G C169A U176G | 0.00452
45 | A111U A120U A145G C150G C169A U176A | 0.0087
46 | A111U A120U C150G U176G | 0.00286
47 | A111U A120U C150G U176C | 0.0189
48 | A111U A120U C150G U176A | 0.00718
49 | A111U A120U C150G C169A U176G | 0.00232
50 | A111U A120U C150G C169A U176A | 0.00451
51 | A111U A120U C150G C169A U176C | 0.0037
52 | A111U A120U C169G U176G | 0.00197
53 | A111U A120U C169G U176C | 0.00937
54 | A111U A120U C169G U176A | 0.00625
55 | A111U A120U A145C C150G U176C | 0.0148
56 | A111U A120U A145C C150G U176A | 0.0107
57 | A111U A120U A145C C150G U176G | 0.00337
58 | A111U A120U A145G | 0.593
59 | A111U A120U A145C | 0.518
60 | A111U A120U A145U | 0.607
61 | A111U A120U A145C C150G C169G U176A | 0.00251
62 | A111U A120U A145C C150G C169G U176C | 0.00254
63 | A111U A120U A145C C150G C169G U176G | 0.00228

Row | Variant | reverse-splicing fitness
64 | A111U A120U A145U U176G | 0.0645
65 | A111U A120U A145U U176A | 0.241
66 | A111U A120U A145U U176C | 0.281
67 | A111U A120U C150U C169G | 0.0274
68 | A111U A120U C150U C169U | 0.0369
69 | A111U A120U C150U C169A | 0.00484
70 | A111U A120U C150U U176A | 0.125
71 | A111U A120U C150U U176C | 0.171
72 | A111U A120U C150U U176G | 0.027
73 | A111U A120U A145G C150U C169G U176G | 0.0024
74 | A111U A120U A145G C150U C169G U176C | 0.00802
75 | A111U A120U A145G C150U C169G U176A | 0.00769
76 | A111U A120U A145C C150U C169U U176A | 0.0036
77 | A111U A120U A145C C150U C169U U176C | 0.00285
78 | A111U A120U A145C C150U C169U U176G | 0.0019
79 | A111U A120U A145U C150G C169A U176G | 0.00255
80 | A111U A120U A145U C150G C169A U176C | 0.00274
81 | A111U A120U A145U C150G C169A U176A | 0.00319
82 | A111U A120U A145U C150A C169A U176G | 0.00154
83 | A111U A120U A145U C150A C169A U176C | 0.00214
